Results from patent publication EP2170953B1.

Key:
[1] = target: Aβ1-42 peptide, oligomer-enriched preparation; assay: ELISA assay 1, Ab 1:128 of 0.5 µg/ml
[2] = target: Aβ1-42 peptide, monomer-enriched preparation; assay: ELISA assay 2, Ab 1:128 of 0.5 µg/ml
[3] = target: Aβ1-42 peptide, oligomer-enriched preparation; assay: ELISA assay 2, Ab 1:128 of 0.5 µg/ml
[4] = target: Aβ1-42 peptide, monomer-enriched preparation; assay: ELISA assay 3, Ab 1:128 of 0.5 µg/ml
[5] = target: Aβ1-42 peptide, oligomer-enriched preparation; assay: ELISA assay 3, Ab 1:128 of 0.5 µg/ml
[6] = target: Aβ1-42 peptide, monomer-enriched preparation; assay: ELISA mean of 3, Ab 1:1 of 0.5 µg/ml
[7] = target: Aβ1-42 peptide, oligomer-enriched preparation; assay: ELISA mean of 3, Ab 1:1 of 0.5 µg/ml
[8] = target: Aβ1-42 peptide, monomer-enriched preparation; assay: ELISA mean of 3, Ab 1:2 of 0.5 µg/ml
[9] = target: Aβ1-42 peptide, oligomer-enriched preparation; assay: ELISA mean of 3, Ab 1:2 of 0.5 µg/ml
[10] = target: Aβ1-42 peptide, monomer-enriched preparation; assay: ELISA mean of 3, Ab 1:4 of 0.5 µg/ml
[11] = target: Aβ1-42 peptide, oligomer-enriched preparation; assay: ELISA mean of 3, Ab 1:4 of 0.5 µg/ml
[12] = target: Aβ1-42 peptide, oligomer-enriched preparation; assay: ELISA mean of 3, Ab 1:8 of 0.5 µg/ml
[13] = target: Aβ1-42 peptide, monomer-enriched preparation; assay: ELISA mean of 3, Ab 1:16 of 0.5 µg/ml
[14] = target: Aβ1-42 peptide, oligomer-enriched preparation; assay: ELISA mean of 3, Ab 1:16 of 0.5 µg/ml
[15] = target: Aβ1-42 peptide, monomer-enriched preparation; assay: ELISA mean of 3, Ab 1:32 of 0.5 µg/ml
[16] = target: Aβ1-42 peptide, oligomer-enriched preparation; assay: ELISA mean of 3, Ab 1:32 of 0.5 µg/ml
[17] = target: Aβ1-42 peptide, monomer-enriched preparation; assay: ELISA mean of 3, Ab 1:64 of 0.5 µg/ml
[18] = target: Aβ1-42 peptide, oligomer-enriched preparation; assay: ELISA mean of 3, Ab 1:64 of 0.5 µg/ml
[19] = target: Aβ1-42 peptide, high molecular weight (HMW) proto-fibrillar (PF) oligomer enriched preparation (human); assay: ELISA on coated fraction, Ab 0.5 µg/ml
Sequence of Aβ1-42 peptide, high molecular weight (HMW) proto-fibrillar (PF) oligomer enriched preparation (human) (peptide, as listed by the source, form in doubt): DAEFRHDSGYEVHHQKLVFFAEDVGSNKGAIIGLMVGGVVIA

[20] = target: Aβ1-42 peptide, low molecular weight (LMW) monomer preparation (human); assay: ELISA on coated fraction, Ab 0.5 µg/ml
Sequence of Aβ1-42 peptide, low molecular weight (LMW) monomer preparation (human) (peptide, as listed by the source, form in doubt): as above

[21] = target: Aβ1-42 peptide, monomer-enriched preparation; assay: ELISA mean of 3, Ab 1:128 of 0.5 µg/ml
[22] = target: Aβ1-42 peptide, oligomer-enriched preparation; assay: ELISA mean of 3, Ab 1:128 of 0.5 µg/ml
[23] = target: Aβ1-42 peptide, high molecular weight (HMW) proto-fibrillar (PF) oligomer enriched preparation (human); assay: ELISA on coated fraction, Ab 0.25 µg/ml
[24] = target: Aβ1-42 peptide, low molecular weight (LMW) monomer preparation (human); assay: ELISA on coated fraction, Ab 0.25 µg/ml
[25] = target: Aβ1-42 peptide, high molecular weight (HMW) proto-fibrillar (PF) oligomer enriched preparation (human); assay: ELISA on coated fraction, Ab 0.125 µg/ml
[26] = target: Aβ1-42 peptide, low molecular weight (LMW) monomer preparation (human); assay: ELISA on coated fraction, Ab 0.125 µg/ml
[27] = target: Aβ1-42 peptide, high molecular weight (HMW) proto-fibrillar (PF) oligomer enriched preparation (human); assay: ELISA on coated fraction, Ab 0.0078 µg/ml
[28] = target: Aβ1-42 peptide, low molecular weight (LMW) monomer preparation (human); assay: ELISA on coated fraction, Ab 0.0078 µg/ml
[29] = target: Aβ1-42 peptide, high molecular weight (HMW) proto-fibrillar (PF) oligomer enriched preparation (human); assay: ELISA on coated fraction, Ab 0.0156 µg/ml
[30] = target: Aβ1-42 peptide, low molecular weight (LMW) monomer preparation (human); assay: ELISA on coated fraction, Ab 0.0156 µg/ml
[31] = target: Aβ1-42 peptide, high molecular weight (HMW) proto-fibrillar (PF) oligomer enriched preparation (human); assay: ELISA on coated fraction, Ab 0.0313 µg/ml
[32] = target: Aβ1-42 peptide, low molecular weight (LMW) monomer preparation (human); assay: ELISA on coated fraction, Ab 0.0313 µg/ml
[33] = target: Aβ1-42 peptide, high molecular weight (HMW) proto-fibrillar (PF) oligomer enriched preparation (human); assay: ELISA on coated fraction, Ab 0.0625 µg/ml
[34] = target: Aβ1-42 peptide, low molecular weight (LMW) monomer preparation (human); assay: ELISA on coated fraction, Ab 0.0625 µg/ml
[35] = target: Aβ1-42 peptide, high molecular weight (HMW) proto-fibrillar (PF) oligomer enriched preparation (human); assay: ELISA, Ab 1 µg/ml; proto-fibrils against LMW monomers (given without sign)
[36] = target: Aβ1-42 peptide, high molecular weight (HMW) proto-fibrillar (PF) oligomer enriched preparation (human); assay: ELISA, Ab 0.5 µg/ml; proto-fibrils against LMW monomers (given without sign)
[37] = target: Aβ1-42 peptide, high molecular weight (HMW) proto-fibrillar (PF) oligomer enriched preparation (human); assay: ELISA, Ab 0.25 µg/ml; proto-fibrils against LMW monomers (given without sign)
[38] = target: Aβ1-42 peptide, high molecular weight (HMW) proto-fibrillar (PF) oligomer enriched preparation (human); assay: ELISA, Ab 0.125 µg/ml; proto-fibrils against LMW monomers (given without sign)
[39] = target: Aβ1-42 peptide, high molecular weight (HMW) proto-fibrillar (PF) oligomer enriched preparation (human); assay: ELISA, Ab 0.0078 µg/ml; proto-fibrils against LMW monomers (given without sign)
[40] = target: Aβ1-42 peptide, high molecular weight (HMW) proto-fibrillar (PF) oligomer enriched preparation (human); assay: ELISA, Ab 0.0156 µg/ml; proto-fibrils against LMW monomers (given without sign)
[41] = target: Aβ1-42 peptide, high molecular weight (HMW) proto-fibrillar (PF) oligomer enriched preparation (human); assay: ELISA, Ab 0.0313 µg/ml; proto-fibrils against LMW monomers (given without sign)
[42] = target: Aβ1-42 peptide, high molecular weight (HMW) proto-fibrillar (PF) oligomer enriched preparation (human); assay: ELISA, Ab 0.0625 µg/ml; proto-fibrils against LMW monomers (given without sign)

Sequence of Aβ1-42 peptide, monomer-enriched preparation (peptide, as listed by the source, form in doubt): as above
Sequence of Aβ1-42 peptide, oligomer-enriched preparation (peptide, as listed by the source, form in doubt): as above

O.D. [1]: 0.62 O.D. | O.D. [2]: 0.75 O.D. | O.D. [3]: 0.61 O.D. | O.D. [4]: 0.86 O.D. | O.D. [5]: 0.66 O.D. | O.D. (mean) [6]: 3.83 O.D. | O.D. (mean) [7]: 3.64 O.D. | O.D. (mean) [8]: 3.59 O.D. | O.D. (mean) [9]: 3.59 O.D. | O.D. (mean) [10]: 3.27 O.D. | O.D. (mean) [11]: 3.37 O.D. | O.D. (mean) [12]: 2.98 O.D. | O.D. (mean) [13]: 1.98 O.D. | O.D. (mean) [14]: 1.92 O.D. | O.D. (mean) [15]: 1.36 O.D. | O.D. (mean) [16]: 1.32 O.D. | O.D. (mean) [17]: 0.94 O.D. | O.D. (mean) [18]: 0.92 O.D. | O.D. [19]: 2 O.D. | O.D. [20]: 2.13 O.D. | O.D. (mean) [21]: 0.75 O.D. | O.D. (mean) [22]: 0.63 O.D. | O.D. [23]: 1.44 O.D. | O.D. [24]: 1.56 O.D. | O.D. [25]: 0.863 O.D. | O.D. [26]: 0.999 O.D. | O.D. [27]: 0.116 O.D. | O.D. [28]: 0.133 O.D. | O.D. [29]: 0.201 O.D. | O.D. [30]: 0.207 O.D. | O.D. [31]: 0.286 O.D. | O.D. [32]: 0.329 O.D. | O.D. [33]: 0.544 O.D. | O.D. [34]: 0.574 O.D. | O.D. difference [35]: 0.13 O.D. | O.D. difference [36]: 0.13 O.D. | O.D. difference [37]: 0.12 O.D. | O.D. difference [38]: 0.14 O.D. | O.D. difference [39]: 0.02 O.D. | O.D. difference [40]: 0.01 O.D. | O.D. difference [41]: 0.04 O.D. | O.D. difference [42]: 0.03 O.D.
Substance: 6E10 control antibody
